A short description of this data set: yeast display, Sf9 membrane polyspecificity reagent, FACS + sequencing; frameworks hold sequencing errors. In short, it runs like this: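 After 36–48 hours of galactose induction, yeast (Saccharomyces cerevisiae BJ5465) displaying a synthetic nanobody library were stained at 4 °C for 1 hour with 10% biotinylated, detergent-solubilized Sf9 membrane reagent. Streptavidin microbeads enriched the stained cells before FACS sorting into low and high (top ~1%) gates on anti-HA and streptavidin fluorescence. Each clone's polyreactivity label reflects its gate of origin.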
“QVQLVESGGGLVQAGGSLRLSCAASGRTLYRYAMGWYRQAPGKERELVAVISWNAVGTYYADSVKGRFTISRDNAKNTVYLQMNSLKPEDTAVYYCAARKRVASQGYIRYNYWGQGTQVTVSS”: the “polyreactivity (PSR sort gate)” value is listed as “high polyreactivity”.
On to “QVQLVESGGGLVQAGGSLRLSCAASGRTLYSNAMGWYRQSPGKERELVAAISSRGGRTYYADSVKGRFTISRDNAKNTVYLQMNSLKPVDTAVYYCNAAYGTGRRQAKSDYWGQGTQVTVSS”, for which the “polyreactivity (PSR sort gate)” value was “high polyreactivity”.
With “QVQLVESGGGLVQAGGSLRLSCAASGRTLYYNTMGWYRPAPGKERELVSSIRWDGGRTYYADSVKGRFTISRDNAKNTVYLQMNSLKPEDTAVYYCAKDGCYYYGTYAYDGCFDYWGQGTQVTVSS”, the “polyreactivity (PSR sort gate)” value is “low polyreactivity”.
Take “QVQLVESGGGLVQAGGSLRLSCAASGRTLYYYAMGWYRQEPGKERELVAAISWSGGRTYYADSVKGRFTISRDNAKNTVYLQMNSLKAEDTAVYYCAAQYISRGYTVDYWGQGTQVTVSS”: the “polyreactivity (PSR sort gate)” value is “high polyreactivity”.
For “QVQLVESGGGLVQAGGSLRLSCAASGRTNSFYAMGWYRQAPGKERELVAAISRGGTTNYADSVKGRFTISRDNAKNTVYLQMNSLKPEDTAVYYCAASYFRRGFYSIYEYDYWGQGTQVTVSS”, the “polyreactivity (PSR sort gate)” value is “low polyreactivity”.
“QVQLVESGGGLVQAGGSLRLSCAASGRTQAFHAMGWYRQAPGKERELVAVIRNGTSTNYADSVKGRFTISRDNAKNTVYLQMNSLKPEDTAVYYCNVPYYLPSYLSGYDYWGQGTQVTVSS”: the “polyreactivity (PSR sort gate)” value is “low polyreactivity”.
As to “QVQLVESGGGLVQAGGSLRLSCAASGRTQRYYAMGWYRQAPRKERELVAAITKSGGSTYYADSVKGRITISRDNAKNTVYLQMYSLKPEDTAVYYFNKVTYSRAQYIGGDGYYWGQGTQVTVSS”, the “polyreactivity (PSR sort gate)” value is given as “high polyreactivity”.
“QVQLVESGGGLVQAGGSLRLSCAASGRTQSRYTMGWYRQAPGKERELVAAISTSGSTYYADSVKGRFTISRDNAKNTVYLQMNSLKPEDTAVYYCNAVRRYLQYATGYDYWGQGTQVTVSS”: the “polyreactivity (PSR sort gate)” value is “high polyreactivity”.
With “QVQLVESGGGLVQAGGSLRLSCAASGRTQYKYAMGWYRQAPGKERELVATISSGGRTKYADSVKGRFTISRDNAKNTVDLQMNSLKPEDTAVYYCAAQNRPRYYSGDYWGQGTQVTVSS”, the “polyreactivity (PSR sort gate)” value is listed as “low polyreactivity”.
“QVQLVESGGGLVQAGGSLRLSCAASGRTSAINAMGWYRQAPGKERELVADITRTGGTYADSVKGRFTISRDNAKNTVYLQMNSLKPEDTAVYYCAAVGPWRFDYWGQGTQVTVSS”: the “polyreactivity (PSR sort gate)” value was “high polyreactivity”.
Take “QVQLVESGGGLVQAGGSLRLSCAASGRTSDEYAMGWYRPAPGKERELVAAITSGGSTNYADSVKGRFTISRDNAKNTVYLQMNSLKPEDTAVYYCAADNIRTWRPIYDYWGQGTQVTVSS”: the “polyreactivity (PSR sort gate)” value is “low polyreactivity”.
In the case of “QVQLVESGGGLVQAGGSLRLSCAASGRTSEIYTMGWYRQAPGKERELVASINTNYADSVKGRFTISRDNAKNTVYLQMNSLKPEDTAVYYCNADDTIEFNYWGQGTQVTVSS”, the “polyreactivity (PSR sort gate)” value is “low polyreactivity”.
Regarding “QVQLVESGGGLVQAGGSLRLSCAASGRTSFYNAMGWYRQAPGKERELVAAISYRGTRTYYADSVKGRFTISRDNAKNTVYLQMNSLKPEDTAVYYCAKDSGYYTADDYDYWGQGTQVTVSS”, the “polyreactivity (PSR sort gate)” value is “low polyreactivity”.
As for “QVQLVESGGGLVQAGGSLRLSCAASGRTSGFNTMGWYRQAPGKERELVAAISFSGGSTYYADSVKGRFTISRDNAKNTGYLQMNSLKPEDTAVYYCAAELERDEEYDYWGQGTQVTVSS”, the “polyreactivity (PSR sort gate)” value is reported as “low polyreactivity”.
As for “QVQLVESGGGLVQAGGSLRLSCAASGRTSGNYAMGWYRQAPGKERELVAAIRYSGSSTFYADSVKGRFTISRDNAKNTVYLQMNSLKPEDTAVYYCARDIRRKGFRYDYWGQGTQVTVSS”, the “polyreactivity (PSR sort gate)” value was “high polyreactivity”.
For the sequence “QVQLVESGGGLVQAGGSLRLSCAASGRTSKVYAMGWYRQAPGKERELVARITSSGVRTYYADSVKGRFTISRDNAKNTVYLQMNRLKPEDTAVYYCAKDARALWLHSGIYDYWGQGTQVTVSS”, the “polyreactivity (PSR sort gate)” value is “low polyreactivity”.
The entry for “QVQLVESGGGLVQAGGSLRLSCAASGRTSLAYAMGWYRQAPGKERELVAGITSGGNTNYADSVKGRFTISCDNAKNTVYLQMNSLKPEDTAVYSCNKKKRWQWYSESVLDYLGFYSWGQGTQVTVSS” is “low polyreactivity”; for “QVQLVESGGGLVQAGGSLRLSCAASGRTSRSYAMGWYRQAPGKERELVAAISWSGGSTYYADSVKGRFTMSRDNAKNTVYLQMNSLKPEDTAGYYCNALTLAGYDYWGQGTQVTVSS” it is “high polyreactivity”; for “QVQLVESGGGLVQAGGSLRLSCAASGRTSSINAMGWYRKAPGKERELVAVITGGGRTSYADSVKGRFTISRDNAKNTVYLQMNSLKPEDTAVYYCNATRSYYGYYYWGQGTQVTVSS” it is “high polyreactivity”.
“QVQLVESGGGLVQAGGSLRLSCAASGRTSTIYTMGWYRQAPGKEREIVASISAGAGTYYADSVKGRFTISRDNAKNTVYLQLNSLKPEDTAVYYCNASVYWRSTRRHQMDYWGQGTQVTVSS”: the “polyreactivity (PSR sort gate)” value is on record as “high polyreactivity”.
As for “QVQLVESGGGLVQAGGSLRLSCAASGRTSVKYAMGWSRQAPGKERELVATIRYRTASTYYADSVKGRFTISRDNAKNTVYLQMNSPKPEDTAVYYCAAATSYASPWWYLYYYWGQGSQVTVSS”, the “polyreactivity (PSR sort gate)” value is “high polyreactivity”.
In the case of “QVQLVESGGGLVQAGGSLRLSCAASGRTSVLYAMGWYRQAPWKEREFVAAITWNSGSTYYADSVKGRFTISRDNAKNTVYLQMNSLKPEDTAVYYCNADYYFSSYRSTYDYWGQGTQVTVSS”, the “polyreactivity (PSR sort gate)” value was “low polyreactivity”.
Turning to “QVQLVESGGGLVQAGGSLRLSCAASGRTSVRNAMGWYRQAPGKERELVAAISRRGTRTYYADSVKGRFTISRDNAKNTVYLQMNSLKPEDTAVYYCAASNGYQAVTYDYWGQGTQVTVSS”, the “polyreactivity (PSR sort gate)” value was “high polyreactivity”.
Consider “QVQLVESGGGLVQAGGSLRLSCAASGRTSVWYTMGWYRQAPGKEREFVASITGSGTYYADSVKGRFTISRDNAKNTVYLQMNSLKPEDTAVYYCAKRGYGYWGQGTQVTVSS”, for which the “polyreactivity (PSR sort gate)” value is “high polyreactivity”.
Then “QVQLVESGGGLVQAGGSLRLSCAASGRTSYLYALGWYRQAPGKERELVAAISRGVGSTYYADSVKGRFTISRDNAKNTVYLQMHSLKPEDTAVYYCAAYRYTPWMYYWGQGTQVTVSS”, with “high polyreactivity”; and “QVQLVESGGGLVQAGGSLRLSCAASGRTSYTYVMGWYRQAPGTERELVAAIRLSGGNTYYADSVKGRFTISRDNAKNTVYLQMNSLKPEDTAVYYCAAHYWRHRKAYGYWGQGTQVTVSS”, with “high polyreactivity”.
The entry for “QVQLVESGGGLVQAGGSLRLSCAASGRTSYVYAMGWYRQAPGKERELVAAITSSGASTYYADSVKGRFTISRDNAKNTVYLQMNSLKPEDTAVFYCAAETYPVWGVAFYYWGQGTQVTVSS” is “high polyreactivity”; for “QVQLVESGGGLVQAGGSLRLSCAASGRTVTYYVMGWYRQAPGNERELVARITSSGITYYADSVKGRFTISRDNAKNTVYLQMNSLKPEDTAVYYCAKRRNAWTPYRFDYWGQGTQVTVSS” it is “high polyreactivity”.
The entry for “QVQLVESGGGLVQAGGSLRLSCAASGRTVVNAMGWYRQAPGKERELVAAISSNGGRTYYADSVKGRFTISRDNAKNTVYLQMNSLKPEDTAVYYCATRWIKGRKMDYWGQGTQVTVSS” is “high polyreactivity”; for “QVQLVESGGGLVQAGGSLRLSCAASGRTVVNAMGWYRQAPGKERELVAAISSNGGRTYYADSVKGRFTISRDNAKNTVYLQMTSLKPEDTAVYYCAKGLGIRPTYYYWGQGTKVTVSS” it is “high polyreactivity”.
